The series is described as follows: soluble on expression in E. coli; label from the status in PepcDB or PDB records.
With “MSLSEGTFEVGKNTFLLNGEPFVVKAAEIHYPRIPKEYWEHRIKMCKALGMNTICLYVFWNFHEPEEGRYDFAGQKDIAAFCRLAQENGMYVIVRPGPYVCAEWEMGGLPWWLLKKKDIKLREQDPYYMERVKLFLNEVGKQLADLQISKGGNIIMVQVENEYGAFGIDKPYISEIRDMVKQAGFTGVPLFQCDWNSNFENNALDDLLWTINFGTGANIDEQFKRLKELRPDTPLMCSEFWSGWFDHWGAKHETRSAEELVKGMKEMLDRNISFSLYMTHGGTSFGHWGGANFPNFSPTCTSYDYDAPINESGKVTPKYLEVRNLLGNYLPEGETLPEIPDSIPTIAIPTIKMTEMAVLFDNLPHPKESEDIRTMEAFDQGWGSILYRTSLSASDKEQTLLITEAHDWAQVFLNGKKLATLSRLKGEGVVKLPPLKEGDRLDILVEAMGRMNFGKGIYDWKGITEKVELQSDKGVELVKDWQVYTIPVDYSFARDKQYKQQENAENQPAYYRSTFNLNELGDTFLNMMNWSKGMVWVNGHAIGRYWEIGPQQTLYVPGCWLKKGENEIIILDMAGPSKAETEGLRQPILDVQRGNGAYAHRKMGEGHHHHHH”, the “soluble on expression in E. coli” value was “soluble”. The entry for “MKFFNREKEINEILLILEEEPNNIYFIYGPLNSGKSTLIREVITNRLDKSKYIPFFIDFRTRNILNVDNFIECLFEVDEKSKIDDFREYAKSLADLLVKGSEEISKYYLGMPIKVPKPFFDRIFSKRDKSADVYQYIEYLFAKLNEKGKKPILIFDELQMIREITLNGNRLLLWSLFQFLVALTKVQHLCHVFCLSSDSLFIEYIYGKAELKGGVDYILVDDFDKKTALKFMDFLAKQKNINLTNEDKELIYSYVGGKAKYIYDVIVKLKAVKDLKYILETKLEEERNHLEELLEKVEEDYEGINYDEVLEALKLFKDNYELPKSKIKRKIRIFLIKENILFLNPQKGTLKPQSYLVWNAIKRML” is “not soluble”; for “LLLFFPLGLQQPLLLLLSPPFQHEIQRRKEEIKEEKKRKEMAKQERLEIASLSNQDHTSKKDPGGHRTAAILHGGSPDFVGNGKHRANSSGRSRRERQYSVCNSEDSPGSCEILYFNMGSPDQLMVHKGKCIGSDEQLGKLVYNALETATGGFVLLYEWVLQWQKKMGPFLTSQEKEKIDKCKKQIQGTETEFNSLVKLSHPNVVRYLAMNLKEQDDSIVVDILVEHISGVSLAAHLSHSGPIPVHQLRRYTAQLLSGLDYLHSNSVVHKVLSASNVLVDAEGTVKITDYSISKRLADICKEDVFEQTRVRFSDNALPYKTGKKGDVWRLGLLLLSLSQGQECGEYPVTIPSDLPADFQDFLKKCVCLDDKERWSPQQLLKHSFINPQPKMPLVEQSPEDSGGQDYVETVIPSNRLPSAAFFSETQRQFSRYFIEFEELQLLGKGAFGAVIKVQNKLDGCCYAVKRIPINPASRQFRRIKGEVTLLSRLHHENIVRYYNAWIERHERPAGPGTPPPDSGPLAKDDRAARGQPASDTDGLDSVEAAAPPPILSSSVEWSTSGERSASARFPATGPGSSDDEDDDEDEHGGVFSQSFLPASDSESDIIFDNEDENSKSQNQDEDCNEKNGCHESEPSVTTEAVHYLYIQMEYCEKSTLRDTIDQGLYRDTVRLWRLFREILDGLAYIHEKGMIHRDLKPVNIFLDSDDHVKIGDFGLATDHLAFSADSKQDDQTGDLIKSDPSGHLTGMVGTALYVSPEVQGSTKSAYNQKVDLFSLGIIFFEMSYHPMVTASERIFVLNQLRDPTSPKFPEDFDDGEHAKQKSVISWLLNHDPAKRPTATELLKSELLPPPQMEESELHEVLHHTLTNVDGKAYRTMMAQIFSQRISPAIDYTYDSDILKGNFSIRTAKMQQHVCETIIRIFKRHGAVQLCTPLLLPRNRQIYEHNEAALFMDHSGMLVMLPFDLRIPFARYVARNNILNLKRYCIERVFRPRKLDRFHPKELLECAFDIVTSTTNSFLPTAEIIYTIYEIIQEFPALQERNYSIYLNHTMLLKAILLHCGIPEDKLSQVYIILYDAVTEKLTRREVEAKFCNLSLSSNSLCRLYKFIEQKGDLQDLMPTINSLIKQKTGIAQLVKYGLKDLEEVVGLLKKLGIKLQVLINLGLVYKVQQHNGIIFQFVAFIKRRQRAVPEILAAGGRYDLLIPQFRGPQALGPVPTAIGVSIAIDKISAAVLNMEESVTISSCDLLVVSVGQMSMSRAINLTQKLWTAGITAEIMYDWSQSQEELQEYCRHHEITYVALVSDKEGSHVKVKSFEKERQTEKRVLETELVDHVLQKLRTKVTDERNGREASDNLAVQNLKGSFSNASGLFEIHGATVVPIVSVLAPEKLSASTRRRYETQVQTRLQTSLANLHQKSSEIEILAVDLPKETILQFLSLEWDADEQAFNTTVKQLLSRLPKQRYLKLVCDEIYNIKVEKKVSVLFLYSYRDDYYRILF” it is “soluble”.

Take “GKREPDLTGGFSTYLKYKNITFNALFSFSFGNKMRLNDLYESSGQRLPYPDQNMSSEFVNRWREPGDEDRTIIPVLSDKSLQINDKDVTYRIADNGWDMYNKSDIRVVSGSFLRCRSMSIRYDFKREWLKPVYLKGASVSFDMGNVFVIKDKALKGRDPEQIGFGSRSIPPQRSYSLRFNITL”: the “soluble on expression in E. coli” value is listed as “not soluble”.

Take “MKKVEVLKRLENAGVIAVLRADSKEEALKISHAVVEGGMIGLELTFTVPQADEVIRSLVETYHDEKDIVIGAGTVLDAVTARLAIMAGAEFIVSPSFNRETAEICNLYQVPYLPGCMTITEMQTALKSGVDIVKLFPGSTYGPSIISAFQAPLPYLNIMPTGGVSLDNMASWFEAGVTAVGVGGNLLAHAKTGEFGKVTALAKQYMAKFREIKEN”: the “soluble on expression in E. coli” value is “not soluble”. Then “LFEMGLQRYLESGLRNESENLLVALVRGPAGLQLDDHRLSGAYQRPLSGHYFRMDLPQGHWRSRSLWDFELPQPGVGLHANLELGKTVQSLLMLTSEYRKFGKQISITVAQDYTPVRASFR”, with “not soluble”; and “MNDAVPAGNFVPPLILHSDHGGSAMSSSAHRGRILHFLGDPAKLGDKAWEYFEDGLLWIEHGHVRALDHATYLLPQLPADLPLEEHPQRLLLPGFVDCHVHYPQLGVIASYGTQLLDWLETHTFPAEQRFADAGYAAAQAELFLDELLRHGTTTALVFGTVHAVSAEAFFQAAQKRRLRMIAGKVLMDRNAPPALCDTAASGYAESRALIERWHGNGRLQYAVTPRFAPTSSPEQLAAAARLLDEYPGVYLHTHLSENLKEVAWVGELFPQAQDYLDVYHRAGLVGERSVFAHGIHLSERECRCLAHKNAALAHCPSSNLFIGSGLFDLGRAQQYGIRVGIGSDVGGGTSLSLLANLADAYKIQQLRGTSLDPFQALYLATLGGARALDLDGLVGNFLPGREADFVALDLAATPMIAQRMEHARGLADTLFVLNTLGDDRAVAETWVMGERRHVKG”, with “not soluble”. Regarding “MAEARPDSLTRSRAAKPAGEGAAFSPLYRQIKELLVQSLDRGEWKPGELIPSEIDLAARFQVSQGTVRKAVDELAAEHLLLRRQGKGTFVATHHEARVRYRFLRLAPDEEGEGGRAESRILECRRLRAPAEIARALELRAGETVVTIRRQLSMNHMPTVIDDLWLPGTHFRGLTLELLTASKAPLYGLFESEFGVSMVRADEKLRAVAASPEIAPLLGVEPGRPLLQVDRISYTYGDRPMEVRRGLYLTDHYHYRNSLN”, the “soluble on expression in E. coli” value is on record as “soluble”. With “GMSTQENVQIVKDFFAAMGRGDKKGLLAVSAEDIEWIIPGEWPLAGTHRGHAALAALLQKASEMVEISYPEPPEFVAQGERVLVVGFATGRVKSTNRTFEDDWVFAITVRKSKVTSIREYIDTLALARATNFNAT”, the “soluble on expression in E. coli” value is recorded as “soluble”.

As to “GPGSMDAIHILKENALRLVSAGQPISALHLVEVLCELQPDSDENRSLKIRCLYELREFDSVLKLAKQVTFACDQNSEVFLLAVKAAFELGDLKTCVQYAMTLINADSSKVVAMCFVAKAAELSGDPAKAVRFYKMALEADPFCGEAFSALTERHLLDRWEMLKLIDSLCIPAEVEVYRSTLKARIGSDYLTPGISGVPRTLVLLAGAKKEYESNNLRQALSLTTEILEVEPYHRQTLCLHLCILVDSKATPLLFEKAHFLSKNKCYTELAVYAIGCFYYSLSNYERAGRYFSRASELDCYFAEAWVAYGHCYAKLEEGEQALNVYRRTMNFFPGLNACCTYVGMQYSRVNQRSVARCFFEESLRKNSIDPLVLNELGVLALAEDNPKQALELFQKAYDSLPNRENPSEHSDCILFNLATMYRKLGRYEAAIDYYNQYVRSRPNASHGHCALGFTYHLSGNIKAAISCYHTAESIKPDSFCRDLLRRALELDFGACGRLSWDSERPHLSFSPGEVSFSTVSRRFRSESTAADSVAASPPPRVGRSLDFQHQ”, the “soluble on expression in E. coli” value is “not soluble”. The entry for “MSLTPQQVFVKCHFDYNPYNDNLIPCKEAGLKFSKGEILQIVNREDPNWWQASHVKEGGSAGLIPSQFLEEKRKAFVRRDWDNSGPFCGTISSKKKKKMMYLTTRNAEFDRHEIQIYEEVAKMPPFQRKTLVLIGAQGVGRRSLKNRFIVLNPTRFGTTVPFTSRKPREDEKDGQAYKFVSRSEMEADIKAGKYLEHGEYEGNLYGTKIDSILEVVQTGRTCILDVNPQALKVLRTSEFMPYVVFIAAPELETLRAMHKAVVDAGITTKLLTDSDLKKTVDESARIQRAYNHYFDLIIINDNLDKAFEKLQTAIEKLRMEPQWVPISWVYEGHHHHHH” is “soluble”; for “DSDVEIATIALLDTVQPAHLAPDTKEETVKRWERYSAFAKKTYGLDFPVPYELLETAGEDALLAMMAEFLSTTDATEHGLSAGVLEHQRASFVDNRILDRMDMQRWANVKIPVMLFRAERMHDGAIELEPAYAEIEPDGGWSAIVEDLVIIQLSGDHLAVVDEPEIGKVGVALTNRIEQLQGK” it is “not soluble”; for “MIMLIKKLLETTAAAEEKARQLAEMETDEAWAVYLAEAERQRKLWQYVHYLVAGANADGRAEREQSKAGAPRCDLLQAMAAAEWEKAMLCQNVCQSLNGAAKQAVDAVFRQALRYSGQFLAMAYDERARQTAD” it is “not soluble”. As for “MSLKSVASGKELAGLRVMVIDDSKTIRRTAETLLKREGCEVVTAIDGFEALAKIADQKSQIIFVDIMMPRLDGYQTCALIKNNNLFKSTPVIMLSSKDGLFDKARGRVVGSEQYLTKPFTREELLSAIRTYVNPLKLAEGHHHHHH”, the “soluble on expression in E. coli” value was “not soluble”. As to “MFRKESTILVLGSKVRGAQPGHVLRWRLEHALELSRHTTGPIVVSGKGEAYVMDDWLIRHGVDYRRLIVEPEATSTNENIENAHALLPDTHEWLVVTSDFHKLRTLAWARHLGVPIRVSSAVTKPPFRVNNFVRECFALPHSLLRIAWRRLLAAAALEHHHHHH”, the “soluble on expression in E. coli” value is recorded as “not soluble”. As to “MDNILNYPTSTHVDRLVPKTAFYKHLEINTRLKMRFVEDVERIQWLYKLAPSTMNVDTGKTVHEIVMFLVTLKAEDMPDDVFLAIDRQMPRHVVFVLQYANRGRLLLNYKEWVDANKTRFNILKTFRTEWMPLAKVKLELAGSSLDNIYEAFAGQISGFGTTNAADTKQIMALQDELARKRRAAEALQKRVRNERQFAKQMELNSEARALKREIAKLEEVLKTLENN”, the “soluble on expression in E. coli” value is “not soluble”. Consider “PWDSENTIYDKVDQTKRFIEDVVKSFKQNNAILGWILTNEISLVRIPQNDNIFLRWLRELYNYIKRIDDQHLISVGDNVSPFSHNFLRPENVKGIVDYASPHIYQYDQDPIRHSIRYFMILEYDRSAGLPVILEEFG”, for which the “soluble on expression in E. coli” value was “not soluble”.

As to “MTKKQLHLVIVTGMSGAGKTVAIQSFEDLGYFTIDNMPPALLPKFLQLVEIKEDNPKLALVVDMRSRSFFSEIQAVLDELENQDGLDFKILFLDAADKELVARYKETRRSHPLAADGRILDGIKLERELLAPLKNMSQNVVDTTELTPRELRKTLAEQFSDQEQAQSFRIEVMSFGFKYGIPIDADLVFDVRFLPNPYYLPELRNQTGVDEPVYDYVMNHPESEDFYQHLLALIEPILPSYQKEGKSVLTIAMGCTGGQHRSVAFAKRLAQDLSKNWSVNEGHRDKDRRKETVNRS”, the “soluble on expression in E. coli” value is recorded as “not soluble”. Then “GSHMSDGLPNKKRKRRVLFTKAQTYELERRFRQQRYLSAPEREHLTSLIRLTPTQVKIWFQNHRYKTKRAQNEKGYEGHP”, with “soluble”.

The values above are taken from the DeepSol protein solubility set.
